Measured values reported in patent US20250376533A1.
Read-outs that look alike come from different tables or passages of the source.

Tests used:
[1] = target: cynomolgus CD40 antigen (ACROBiosystems) (cynomolgus) (UniProt G7PG38); test: ELISA, coated antigen
[2] = target: human CD40 antigen (ACROBiosystems) (human) (UniProt P25942); test: ELISA, coated antigen
[3] = target: CD40 on HEK-Blue CD40L cells (InvivoGen) (UniProt P25942); test: cell-based or functional assay
[4] = target: cynomolgus CD40 antigen (ACROBiosystems) (cynomolgus) (UniProt G7PG38); test: ELISA, coated antigen; remark: listed apart in the source
[5] = target: human CD40 antigen (ACROBiosystems) (human) (UniProt P25942); test: ELISA, coated antigen; remark: listed apart in the source
[6] = target: human PD-L1 antigen (ACROBiosystems) (human) (UniProt Q9NZQ7); test: BLI (Gator), antibody captured on PA probe, human PD-L1 in solution
Sequence of human PD-L1 antigen (ACROBiosystems) (human) (Q9NZQ7 19-238 limits assumed): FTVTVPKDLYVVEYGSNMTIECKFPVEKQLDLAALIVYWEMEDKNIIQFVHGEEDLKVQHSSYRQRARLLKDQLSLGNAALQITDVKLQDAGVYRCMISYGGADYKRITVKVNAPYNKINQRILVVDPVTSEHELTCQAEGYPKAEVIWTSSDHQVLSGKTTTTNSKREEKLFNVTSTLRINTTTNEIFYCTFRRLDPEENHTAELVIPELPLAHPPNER

[7] = target: cynomolgus PD-L1 antigen (ACROBiosystems) (cynomolgus) (UniProt G7PSE7); test: ELISA, coated antigen
Sequence of cynomolgus PD-L1 antigen (ACROBiosystems) (cynomolgus) (G7PSE7 entry or part of it): as the sequence (Q9NZQ7 19-238 limits assumed) above, with A33T, A34S, S62N, R68Q, Q82R, F173L, T185A, T192I, H215L counted along it

[8] = target: human PD-L1 antigen (ACROBiosystems) (human) (UniProt Q9NZQ7); test: ELISA, coated antigen
[9] = target: human PD-L1 antigen (ACROBiosystems) (human) (UniProt Q9NZQ7); test: ELISA, coated antigen; remark: listed apart in the source

Sequence of control CD40 monoclonal antibody CP-870893 (IMGT database ID 10523) (VH): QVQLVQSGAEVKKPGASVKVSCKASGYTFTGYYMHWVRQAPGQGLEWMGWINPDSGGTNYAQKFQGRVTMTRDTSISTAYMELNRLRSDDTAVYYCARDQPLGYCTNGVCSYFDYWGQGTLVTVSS
Sequence of control CD40 monoclonal antibody CP-870893 (IMGT database ID 10523) (VL): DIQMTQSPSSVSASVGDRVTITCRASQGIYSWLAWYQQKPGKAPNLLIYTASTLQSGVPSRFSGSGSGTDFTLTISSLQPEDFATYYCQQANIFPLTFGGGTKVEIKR
Sequence of CD40 on HEK-Blue CD40L cells (InvivoGen) (P25942 21-277 limits assumed): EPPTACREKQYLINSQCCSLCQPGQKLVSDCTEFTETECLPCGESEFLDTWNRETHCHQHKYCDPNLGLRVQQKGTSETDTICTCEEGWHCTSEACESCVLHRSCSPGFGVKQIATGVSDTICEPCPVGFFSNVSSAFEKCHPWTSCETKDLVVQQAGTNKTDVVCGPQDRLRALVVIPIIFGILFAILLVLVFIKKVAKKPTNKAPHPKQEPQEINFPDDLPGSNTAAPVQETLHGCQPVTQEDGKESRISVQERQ
Sequence of human CD40 antigen (ACROBiosystems) (human) (P25942 21-193 limits assumed): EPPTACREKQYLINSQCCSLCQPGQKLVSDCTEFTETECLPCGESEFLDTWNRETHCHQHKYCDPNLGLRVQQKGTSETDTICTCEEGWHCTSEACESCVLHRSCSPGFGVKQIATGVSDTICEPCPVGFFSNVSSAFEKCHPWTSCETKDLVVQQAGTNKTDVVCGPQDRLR
Sequence of cynomolgus CD40 antigen (ACROBiosystems) (cynomolgus) (G7PG38 entry or part of it): as the sequence (P25942 21-193 limits assumed) above, with G43S, H56R, R70Q, W89L, A95S, L101P, S106L, H142R, L172Q counted along it

| EC50 [1] | EC50 [2] | CD40 agonistic activity (A)/(B) Ratio, EC50 without over with CHO/PD-L1 [3] | CD40 agonistic activity EC50 (nM) with CHO/PD-L1 (B), SEAP reporter [3] | CD40 agonistic activity EC50 (nM) without CHO/PD-L1 (A), SEAP reporter [3] | EC50 [4] | EC50 [5] | koff [6] | EC50 [7] | EC50 [8] | EC50 [9] | Substance |
| --- | --- | --- | --- | --- | --- | --- | --- | --- | --- | --- | --- |
| 0.018 nM | 0.018 nM | 0.9 | 0.123 nM | 0.109 nM | 0.016 nM | 0.016 nM |  |  |  |  | control CD40 monoclonal antibody CP-870893 (IMGT database ID 10523) |
|  |  |  |  |  |  |  | 0.00265 s⁻¹ | 0.017 nM | 0.014 nM | 0.012 nM | control PD-L1 monoclonal antibody Durvalumab (IMGT database ID 10010) |
